{"source": "paper PMC3737563", "about": "“Investigation of DNA sequence recognition by a streptomycete MarR family transcriptional regulator through surface plasmon resonance and X-ray crystallography” (Nucleic Acids Research, 2013)", "binders": {"B1": {"name": "SCO3205, MarR family transcriptional regulator from Streptomyces coelicolor (natural protein, UniProt Q9KYU1 1-163, looked up)", "chain": "MNDEPRWLTAEEQLVWRSYIEAATLLEDHLDRQLQRDAGMPHVYYGLLVKLAESPRRRLRMTELAKYAKITRSRLSHAVARLEKNGWVRREDCPSDKRGQFAILTDEGYEVLRRTAPGHVDAVRQAVFDRLTPEQQKSLGEIMRIVAEGLQPSEAGADLPWLR", "notes": "SCO3205, MarR family transcriptional regulator, Streptomyces coelicolor; the tag was not removed for any experiment; Total deduced molecular mass 20523 Da; also called MFR; source: E. coli BL21 (DE3), purified (HisTrap nickel column, Superdex 75 gel filtration); not shown: His tag, N-terminal, kept"}, "B2": {"name": "symmetrized O3204 22-mer (dsDNA)", "DNA 1": "AAAGATTGAGATCTCAATCTTT", "DNA 2": "AAAGATTGAGATCTCAATCTTT"}}, "key": {"[1]": {"target": "the molecule itself", "assay": "not stated; purified SCO3205 in solution; the method is told only in the Supplementary Methods"}, "[2]": {"target": "T1, SCO3205 (MarR family regulator) (Streptomyces coelicolor, UniProt Q9KYU1 1-163)", "T1 sequence": "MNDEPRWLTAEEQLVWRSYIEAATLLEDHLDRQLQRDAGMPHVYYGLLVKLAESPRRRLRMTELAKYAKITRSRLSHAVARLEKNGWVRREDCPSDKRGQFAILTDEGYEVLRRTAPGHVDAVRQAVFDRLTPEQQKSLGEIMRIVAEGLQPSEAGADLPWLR", "assay": "crystal structure; 2.8 A; one dimer per duplex; SPR (ReDCaT, Biacore T200) in HBS-EP+: 10 mM HEPES pH 7.4, 150 mM NaCl, 3 mM EDTA, 0.05% P20, 20°C", "conditions": "protein: recombinant; tags: N-terminal His tag plus TEV site, not removed; chain copies: 2; blunt; self-complementary, 2 copies"}}, "data": [{"binder": "B1", "values": [{"measurement": "stoichiometry N", "setting": "[1]", "value": 2}]}, {"binder": "B2", "values": [{"measurement": "binding result", "setting": "[2]", "value": "binds"}]}]}
